B1: Paired immunoglobulin-like type 2 receptor alpha (Homo sapiens), Q9UKJ1 (parent)
chain: MGRPLLLPLLPLLLPPAFLQPSGSTGSGPSYLYGVTQPKHLSASMGGSVEIPFSFYYPWELATAPDVRISWRRGHFHRQSFYSTRPPSIHKDYVNRLFLNWTEGQKSGFLRISNLQKQDQSVYFCRVELDTRSSGRQQWQSIEGTKLSITQAVTTTTQRPSSMTTTWRLSSTTTTTGLRVTQGKRRSDSWHISLETAVGVAVAVTVLGIMILGLICLLRWRRRKGQQRTKATTPAREPFQNTEEPYENIRNEGQNTDPKLNPKDDGIVYASLALSSSTSPRAPPSHRPLKSPQNETLYSVLKA
partner: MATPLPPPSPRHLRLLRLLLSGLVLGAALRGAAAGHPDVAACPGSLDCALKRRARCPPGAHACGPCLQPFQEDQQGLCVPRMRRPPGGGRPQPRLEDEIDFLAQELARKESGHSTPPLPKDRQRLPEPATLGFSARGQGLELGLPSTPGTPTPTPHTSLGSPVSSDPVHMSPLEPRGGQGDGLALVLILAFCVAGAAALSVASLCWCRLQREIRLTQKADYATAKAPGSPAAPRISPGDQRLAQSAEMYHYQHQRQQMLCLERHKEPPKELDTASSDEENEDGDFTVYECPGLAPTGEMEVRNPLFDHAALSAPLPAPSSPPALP
B2: Paired immunoglobulin-like type 2 receptor alpha (Homo sapiens), Q9UKJ1 (parent)
chain: B1 chain
partner: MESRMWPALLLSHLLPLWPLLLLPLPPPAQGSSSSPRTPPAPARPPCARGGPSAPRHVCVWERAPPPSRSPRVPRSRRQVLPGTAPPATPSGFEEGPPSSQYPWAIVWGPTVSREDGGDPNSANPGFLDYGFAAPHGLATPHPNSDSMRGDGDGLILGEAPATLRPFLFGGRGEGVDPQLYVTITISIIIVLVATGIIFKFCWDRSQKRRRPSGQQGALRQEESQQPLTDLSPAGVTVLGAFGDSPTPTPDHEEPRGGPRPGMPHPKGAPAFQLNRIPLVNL
B3: Paired immunoglobulin-like type 2 receptor alpha (Homo sapiens), Q9UKJ1 (parent)
chain: B1 chain

Variants of: B1
Conditions: with npdc1_human NPDC1, Q9NQX5

Variant	effect of a mutation on the interaction
R72A	disrupting interaction strength
F76A	disrupting interaction strength
R78G	increasing interaction strength
S80G	increasing interaction strength
Q140A	disrupting interaction strength
S141A	increasing interaction strength

Variants of: B1
Conditions: with npdc1_human NPDC1, Q9NQX5
Remark: another data set of the same source

Variant	effect of a mutation on the interaction
Q140A	decreasing interaction strength

Variants of: B2
Conditions: with pianp_human PIANP

Variant	effect of a mutation on the interaction
R72A	disrupting interaction strength
F76A	disrupting interaction strength
R78G	increasing interaction strength
S80G	increasing interaction strength

Variants of: B3
Conditions: with co4a_human C4A

Variant	effect of a mutation on the interaction
F76A	disrupting interaction strength
R78G	increasing interaction strength
S80G	increasing interaction strength
